Assay results reported in the supplement of paper PMC9170038.

Test system: MS2 coat protein
Assay: apparent KD of MS2 coat protein; designed switch direction (-1 OFF switch, 1 ON switch): -1; higher = weaker reporter binding
How it was run: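 Designed RNA switches with common flanks were made on Illumina chips by stalled E. coli RNA polymerase. Titration with SNAP-549-labelled MS2 coat protein doubled from 0.7 or 1.5 nM up to 3 µM. Apparent KD is each design's median over clusters after curve-fitting normalised fluorescence.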

[1] = Eterna round: R95, input ligand: FMN 200 uM
[2] = Eterna round: R95, input ligand: microRNA oligo, concentration not stated
[3] = Eterna round: R95, input ligand: none
[4] = input ligand: microRNA oligo, concentration not stated

| Sequence | apparent KD of MS2 coat protein [2] [µM] | apparent KD of MS2 coat protein (input ligand: FMN 200 uM) [µM] | apparent KD of MS2 coat protein (input ligand: none) [µM] | further results |
| --- | --- | --- | --- | --- |
| AUAGGGUCAGGAUAUUGCGCAGUGGACAUGAGGAUCACCCAUGUGAACUUCGUACCGGGCCAAGAAGGGACAGAAA [Tiersoaso] (puzzle: Exclusion 5) | 0.0113 | – | – | apparent KD of MS2 coat protein [1]: 0.0217 µM; apparent KD of MS2 coat protein [3]: 0.0134 µM |
| ACAAGCUUUUUGUUCGUCUUAUAAUAAUAAAUAAAGAUAACAUGAGGAUCACCCAUGUAACAAAGACGGCCUCAUGU [Sesor Array 19 - Jieux - Sensor v3, turn-off variant 2] (puzzle: Sensor v3, turn-off variant 2) | 0.0117 | – | – | apparent KD of MS2 coat protein [1]: 0.166 µM; apparent KD of MS2 coat protein [3]: 0.112 µM |
| AUGAGCAGACGGAGAUCCAACAUGAGGAUCACCCAUGUCUCAAAAGCUUUUUGCUCAUCUUAUCGUACCUUGGUGCU [Mat - Sensor v3 - turn-off var 1 - JL Mod - D13] (puzzle: Sensor v3, turn-off variant 1) | 0.0154 | – | – | apparent KD of MS2 coat protein [1]: 0.162 µM; apparent KD of MS2 coat protein [3]: 0.238 µM |
| GGUGCGUAUGUGAGGAUAUGCUGGUCCUUGGAUCGGCAGAAGGCACAUGAGGAUCACCCAUGUGGUGUCGUACG [salish99_Bmod_ex4_078] (puzzle: Brourd's mod of Exclusion 4) | 0.0518 | – | – | – |
| AAGAAACAUGAGGAUCACCCAUGUGAGGAUAUGAAAAAGAAAAGAAAAGAAAGAAGGGUCAGAAGGCACAAAGG [salish99-ex1_r3_028] (puzzle: Exclusion 1) | 0.0253 | – | – | apparent KD of MS2 coat protein [1]: 0.024 µM; apparent KD of MS2 coat protein [3]: 0.0355 µM |
| AGAUGUAGAUACCGAUCCUACAUGAGGAUCACCCAUGUAGCUAGACGUGCACGCGAAGCUCGUCAGACUACCAGAAG [salish99_TOv1_r3_084] (puzzle: Sensor v3, turn-off variant 1) | 0.144 | – | – | apparent KD of MS2 coat protein [1]: 0.172 µM; apparent KD of MS2 coat protein [3]: 0.261 µM |
| CGUCUGUAAGGAUAUGGUUGCAUCAACAUGAGGAUCACCCAUGUUACAUGGGACUAGUGAUUAGAAGGUACGAACG [EX5 #57] (Eterna round: R97, puzzle: Exclusion 5) | – | 0.0583 | 0.0542 | – |
| AGCAGGCAUUCCUCUGGACACAUGAGGAUCACCCAUGUUCGUCGCUCGCAGCGUUGAGGCAUUACCCUUAACGCUUU [Eternabot (Original) Solution 29] (Eterna round: R97, puzzle: Sensor, turn-off variant 1) | – | 0.0525 | 0.0488 | – |
| ACUCACGCAGGAUAUACAUGAGGAUCACCCAUGUUCAAAGGGCGCGGGAACAUCGUCUGUAGAAGGGCGAACAU [jl-ex3-4.62 ViennaUCT mod] (Eterna round: R97, puzzle: Exclusion 3) | – | 0.0404 | 0.029 | – |
| AAGGGUGCUUUCAGAACGACAUGAGGAUCACCCAUGUAGACUGAGGAUAUCUACUUCUAAGGACGGGAGAAGGCAGUGUAAUGC [Ex NG3 #68] (Eterna round: R96, puzzle: Exclusion NG 3) | – | 0.0231 | 0.0216 | apparent KD of MS2 coat protein [4]: 0.0195 µM |
| AGUCGGCGAGGAUAUACAUGAGGAUCACCCAUGUAUGAUCCUAGACCUGUAGGUCCAUGUAGAAGGCGCUGACA [Exclusion 3 - Was a mod at one point v.3] (puzzle: Exclusion 3) | 0.0662 | – | – | – |
| GCUGCGCGAGGAUAUGCGGUUCGCGCGGUGGCCCGUGGCGGACAUGAGGAUCACCCAUGUAGAAGGCGUGCGGG [Apr-15 SS2-59] (puzzle: Exclusion 2) | 0.0112 | – | – | – |
| GUGAACUCGCUACUUACCAACAUGAGGAUCACCCAUGUGGGAGAAAGUGAAUAGCUAGUUGUUACGUCUUAAUCCAG [Eternabot (L1) Solution 47] (Eterna round: R97, puzzle: Sensor, turn-off variant 1) | – | 0.0127 | 0.013 | – |
| CGGCAAAGGUAGGAUAUGCUAGACGAGAGUCUAGCAGAAGGACCUACAUGAGGAUCACCCAUGUGUCCAAGCCG [Mat - Exclusion 6 - Eli Mod - D20] (Eterna round: R97, puzzle: Exclusion 6) | – | 0.032 | 0.0973 | – |
| AUCUGCACGCUGCGGUCCUACAUGAGGAUCACCCAUGUGGUCUGGUGGCGUGGGUCGCCGGACUUGGCUCGUCUUGA [salish99_S_TOV1_R5_043] (Eterna round: R97, puzzle: Sensor, turn-off variant 1) | – | 0.0181 | 0.0181 | – |
| GUAUAACUACACGGGCUCAACAUGAGGAUCACCCAUGUCAUAUACGCAAGCUUUUUGCUUGUCUUAUCAGGCCGUGA [Ceatxe] (puzzle: Sensor v3, turn-off variant 1) | 0.0165 | – | – | apparent KD of MS2 coat protein [1]: 0.0135 µM; apparent KD of MS2 coat protein [3]: 0.0124 µM |
| ACGUAUAGAGGAUAUAGUGAAUAUUACAUGAGGAUCACCCAUGUUCUUCAAAGUAUAUUUCUAGAAGGCUAAUGAA [EX-5 Malc#10] (puzzle: Exclusion 5) | 0.0355 | – | – | – |

| Sequence | apparent KD of MS2 coat protein [2] [µM] | apparent KD of MS2 coat protein (input ligand: FMN 200 uM) [µM] | apparent KD of MS2 coat protein (input ligand: none) [µM] | further results |
| --- | --- | --- | --- | --- |
| CCGGAACAUGAGGAUCACCCAUGUGAGGAUAUCGUACGUUCGUCGAAAGACGAUCGUACGAGAAGGCAUGCCGG [Eli x1 4.34] (Eterna round: R97, puzzle: Exclusion 1) | – | 0.0196 | 0.0277 | – |
| UUGUUCCGUGUAGGAUAUUGGUCUCCCUCGGGCCGAGAAGGACAUGAGGAUCACCCAUGUAUGCUAUUAUCGCGCGUGGCGCAU [Design 92] (Eterna round: R96, puzzle: Exclusion NG 1) | – | 0.209 | 0.0589 | apparent KD of MS2 coat protein [4]: 0.0485 µM |
| GUGAAUGCAAGCUUUAAAUACAUGAGGAUCACCCAUGUAAACGCUAACCGCGAUAAUUACUGGGUACCUCCCGUCUU [Eternabot (L2) Solution 44] (Eterna round: R97, puzzle: Sensor, turn-off variant 1) | – | 0.0087 | 0.0249 | – |
| CUGGAGUCAGGAUAUGACGCAGUCCGCCCAAAGGGCGGAAAUCAGAAGGGACUUGAGGAUCACCCAAGUAAAAG [Gecear] (Eterna round: R97, puzzle: Exclusion 4) | – | 0.0288 | 0.0314 | – |
| AGGUCACAUGAGGAUCACCCAUGUCAGGAUAUCGUCACUGGAGCUGCGGCUCCAGUGACGAGAAGGGACAAUUA [E1/6-A3] (Eterna round: R97, puzzle: Exclusion 1) | – | 0.372 | 0.0772 | – |
| CAGUACUGAGGAUAUACAUGAGGAUCACCCAUGUGCUCGAAGUAGGAUACUACUAUUAGUAGAAGGCAGUACUG [Fiskers Ex 3 828 mod 22] (puzzle: Exclusion 3) | 0.0159 | – | – | – |
| UGUUCGGUAGGAUAUACAUCGCUGAAGUGGCGGUGACUUCAACAUGAGGAUCACCCAUGUAGAAGGGCCGGCUC [EX2 C.4] (Eterna round: R97, puzzle: Exclusion 2) | – | 0.0173 | 0.0165 | – |
| AUCAGCUCGUGAGGAUAUACAUGCGUGCUUCGGCACGAAUUUAAGAUCACAUGAGGAUCACCCAUGUAGAAGGCACGAGCUGAU [ENG2/3-A3] (Eterna round: R96, puzzle: Exclusion NG 2) | – | 1.88 | 0.52 | apparent KD of MS2 coat protein [4]: 0.538 µM |
| GCACUGCGAGGAUAUACAUGAGGAUCACCCAUGUGUCGGCAGACAUGUUAUUUCUAAUGUAGAAGGCGCGUAAA [JR_Ex3_Sub002] (Eterna round: R97, puzzle: Exclusion 3) | – | 0.34 | 0.0688 | – |
| ACAUGAGGAUCACCCAUGUGAAACCAAUGGCUGACUUUGAGCUAGGAUAUUUGUGCAUAUCAAACAAAGAAGGAGCAUUACUGG [Deportation 98 - Jieux - Exclusion NG 3] (Eterna round: R96, puzzle: Exclusion NG 3) | – | – | – | apparent KD of MS2 coat protein [4]: 0.0302 µM |
| GCCGGUGAUCUAACCCGUAACAUGAGGAUCACCCAUGUAAGCUCGGGUUCUACAGAACCCGAUAUUAGCUCGUCAGU [Eternabot (Original) Solution 3] (Eterna round: R97, puzzle: Sensor, turn-off variant 1) | – | 0.599 | 0.894 | – |
| UAUAUGUCAGGAUAUUGUUAAUUUAGUUGUUUGUAUUAGUUCGAGAAGGGACAUGAGGAUCACCCAUGUUGUUU [Ex4 #57] (Eterna round: R97, puzzle: Exclusion 4) | – | 0.0288 | 0.0296 | – |
| UAUAUAUAGUAAGGAUAUGUAUAUUUUUUAUAAACAGAAGGUACUGACAUGAGGAUCACCCAUGUUUUAGUGUGGGCAUGUAGA [JMF's solution 53] (Eterna round: R96, puzzle: Exclusion NG 1) | – | – | – | apparent KD of MS2 coat protein [4]: 0.0638 µM |
| AAAUAACAAGCAAGAUCCUACAUGAGGAUCACCCAUGUGCUCGUCUUGUAAAGUACUAUCACGAAAGUGAUAGUACA [Sensor 3, v1 - 12] (puzzle: Sensor v3, turn-off variant 1) | 0.219 | – | – | apparent KD of MS2 coat protein [1]: 0.0234 µM; apparent KD of MS2 coat protein [3]: 0.023 µM |
| CUCCUCGUGGCGCCUAAACACAUGAGGAUCACCCAUGUACAGGCUUUUUGCCGUCUUAUAAUAAAACCGAGGAGGCG [Arce] (puzzle: Sensor v3, turn-off variant 1) | 0.0221 | – | – | apparent KD of MS2 coat protein [1]: 0.0137 µM; apparent KD of MS2 coat protein [3]: 0.0159 µM |
| CAUGUGUAAGGAUAUGACAAUGGUAUCUUCGGAUACCAUUGUCAGAAGGUACAUGAGGAUCACCCAUGUACAUC [Ex4-3: 17] (puzzle: Exclusion 4) | 0.0131 | – | – | – |
| UAUAUAUAGUAAGGAUAUGUAUAAAUUUUAUAAACAGAAGGUACUGACAUGAGGAUCACCCAUGUUUUAGUGUGGGCAUGUAGA [JMF's solution 52] (Eterna round: R96, puzzle: Exclusion NG 1) | – | – | – | apparent KD of MS2 coat protein [4]: 0.0746 µM |
